Measurements: article PMC9674691

How the values were obtained:
[1] = target: BoeAcrIIC1 (AcrIIC1 ortholog from Brackiella oedipodis) (Brackiella oedipodis); test: SEC + other: 1H NMR spectra; AcrIIC1 ortholog alone, oxidizing condition
[2] = target: biotinylated NmeHNH (Neisseria meningitidis) (UniProt C9X1G5); test: BLI; biotinylated NmeHNH on streptavidin biosensors, Acr as analyte, 37 °C, 20 mM Tris, 100 mM NaCl, pH 7.4 without DTT; global 1:1 fit
[3] = target: biotinylated NmeHNH (Neisseria meningitidis) (UniProt C9X1G5); test: BLI; biotinylated NmeHNH on streptavidin biosensors, Acr as analyte, 37 °C, 20 mM Tris, 100 mM NaCl, pH 7.4 with 1 mM DTT; global 1:1 fit
[4] = target: NmeAcrIIC1 (AcrIIC1 from Neisseria meningitidis), reduced form (Neisseria meningitidis); test: SEC; NmeAcrIIC1 alone, no reductant in the buffer or excess H2O2 added to the monomer eluent
Cys17 = Cys17 (UniProt position 17, AGYDGCGLCLA); test: NMR; details: 25 °C (general statement in the NMR methods), 100 mM NaCl, 50 mM Tris, buffer-exchanged at each pH, Free protein. Reduced monomer is inferred from Cbeta shifts of about 25.5-29.5 ppm, typical of free thiol. The presence of a reductant in the titration buffer is not stated.
Cys80 = Cys80 (UniProt position 80, VGMASCWEFVE); test: NMR; details: 25 °C (general statement in the NMR methods), 100 mM NaCl, 50 mM Tris, buffer-exchanged at each pH, Free protein. Reduced monomer is inferred from Cbeta shifts of about 25.5-29.5 ppm, typical of free thiol. The presence of a reductant in the titration buffer is not stated.

BoeAcrIIC1 (AcrIIC1 ortholog from Brackiella oedipodis) (natural protein)
stoichiometry N [1]: 2

AcrIIC1-SS (NmeAcrIIC1 with Cys17 and Cys80 substituted with serine) (natural protein)
Kd [2]: 10.8 nM
Kd [3]: 12.7 nM

NmeAcrIIC1 (AcrIIC1 from Neisseria meningitidis), reduced form (natural protein)
Kd [3]: 1.78 nM
stoichiometry N [4]: 2

oxidized NmeAcrIIC1 dimer (natural protein)
BLI response [2]: < 0.05

Anti-CRISPR protein AcrIIC1 (NmeAcrIIC1) (Neisseria meningitidis)
pKa (Cys17): 8.920 ± 0.158
pKa (Cys80): 8.258 ± 0.218
